Molecular target: elongation factor G (EF-G) of B. subtilis, P80868
Sequence (P80868 2-692): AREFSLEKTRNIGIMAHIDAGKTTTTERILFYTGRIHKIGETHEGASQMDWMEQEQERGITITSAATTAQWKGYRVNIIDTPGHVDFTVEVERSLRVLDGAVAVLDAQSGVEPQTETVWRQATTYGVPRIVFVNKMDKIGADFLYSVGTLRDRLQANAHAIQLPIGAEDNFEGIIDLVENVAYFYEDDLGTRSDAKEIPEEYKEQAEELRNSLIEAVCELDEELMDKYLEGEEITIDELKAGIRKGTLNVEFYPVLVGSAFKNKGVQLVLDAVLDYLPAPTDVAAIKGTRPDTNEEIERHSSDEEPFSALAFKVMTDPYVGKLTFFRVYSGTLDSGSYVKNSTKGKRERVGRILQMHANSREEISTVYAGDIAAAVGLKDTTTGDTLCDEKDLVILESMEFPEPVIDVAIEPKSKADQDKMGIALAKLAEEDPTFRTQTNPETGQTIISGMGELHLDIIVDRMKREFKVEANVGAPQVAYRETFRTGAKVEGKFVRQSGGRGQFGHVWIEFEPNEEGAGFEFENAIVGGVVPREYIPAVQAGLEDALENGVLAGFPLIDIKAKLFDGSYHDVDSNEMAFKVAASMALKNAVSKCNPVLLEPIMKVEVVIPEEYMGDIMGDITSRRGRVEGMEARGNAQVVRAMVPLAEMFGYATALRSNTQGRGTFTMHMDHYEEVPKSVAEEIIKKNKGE

B1: PrkC Ser/Thr kinase of B. subtilis (protein)
chain: MLIGKRISGRYQILRVIGGGGMANVYLAEDIILDREVAIKILRFDYANDNEFIRRFRREAQSASSLDHPNIVSIYDLGEEDDIYYIVMEYVEGMTLKEYITANGPLHPKEALNIMEQIVSAIAHAHQNQIVHRDIKPHNILIDHMGNIKVTDFGIATALSSTTITHTNSVLGSVHYLSPEQARGGLATKKSDIYALGIVLFELLTGRIPFDGESAVSIALKHLQAETPSAKRWNPSVPQSVENIILKATAKDPFHRYETAEDMEADIKTAFDADRLNEKRFTIQEDEEMTKAIPIIKDEELAKAAGEKEAEVTTAQENKTKKNGKRKKWPWVLLTICLVFITAGILAVTVFPSLFMPKDVKIPDVSGMEYEKAAGLLEKEGLQVDSEVLEISDEKIEEGLMVKTDPKADTTVKEGATVTLYKSTGKAKTEIGDVTGQTVDQAKKALKDQGFNHVTVNEVNDEKNAGTVIDQNPSAGTELVPSEDQVKLTVSIGPEDITLRDLKTYSKEAASGYLEDNGLKLVEKEAYSDDVPEGQVVKQKPAAGTAVKPGNEVEVTFSLGPEKKPAKTVKEKVKIPYEPENEGDELQVQIAVDDADHSISDTYEEFKIKEPTERTIELKIEPGQKGYYQVMVNNKVVSYKTIEYPKDE
EF-G phosphorylation (immunoprecipitation with anti-EF-G, western blot with anti-phosphothreonine antibody): EF-G (as identified by probing the same fractions with the α-EF-G) phosphorylation increased following exposure to cell free supernatant (FIG. 24D). In contrast, no change in phosphorylation was observed in spores lacking PrkC.
